Reference: US9395368B2, “Methods, agents and peptides for inducing an immune response to matrix metalloproteinase-2 expressing tumors” (New York University, priority 2010, dated 2016)

Experiments:
Assay type in all cases: cell-based, human
OX40L expression on DCs = OX40L expression on DCs by surface staining; conditions: immature and poly(I:C)-matured DCs, n=9, 24 h
Description: Immature and poly(I:C)-matured DCs were incubated with active or HI MMP-2 (0.5 μg/mL or 5 μg/mL) for 24 h. MMP-2 enzymatic activity was controlled (FIG. 13C-D). OX40L expression was assessed by surface staining (A) Histogram plots are shown for representative donor HD1228. Isotype control is represented in tinted gray. (B) Mean fluorescent intensities are represented for all 9 donors tested. […] P values≦0.0167 (*) were considered statistically significant using a Bonferroni correction for 3 comparisons for each DC type. See also FIG. 12.
Dendritic cell preparation and activation. PBMCs were purified from healthy—(HD) or cord blood—(CB) donors and plated at 40×10^6 cells/10 mL/dish in complete IMDM with 5% PHS. Cells were allowed to adhere for 2 h at 37° C. Non-adherent cells were removed. The monocyte-enriched fraction was supplemented with 100 UI/mL rhGMCSF and 300 UI/mL rhIL-4 (R&D Systems) on days 0, 2 and 4. Immature DCs were harvested on day 5 and matured using poly(I:C) at 5 μg/mL/10^6 DCs (Amersham) Secretion of IL-12p70, TNFα, IL-1β, IL-6, IL-8 and IL-10 was assessed on both immature and mature DCs using the Human Inflammatory Cytokine Cytometric Bead Array (BD Pharmingen).

[1] = test system: CD40, CD80, CD83, CD86, HLA-DR and CCR7 on DCs; test: Expression of maturation markers by DCs
Description: Antibodies. Allophycocyanin-conjugated antibody to CCR-7 (150503) was purchased from R&D Systems. Unconjugated (10 μg/mL for blocking experiments) or phycoerythrin-conjugated antibody to OX40L (11C3.1) was from Biolegend. Blocking antibody to IL-4 (8F12; 10 μg/mL) was from Acris. Antibodies to human Vβ chains covering 70% of the repertoire (10Test Beta Mark; Beckman Coulter) were used according to the manufacturer's instructions. Fluorescein isothiocyanate-conjugated antibody to IL-12p35/IL-12p70 (B-T21) and IFNAR1 (EP899Y) were from Abcam. Phycoerythrine-conjugated antibodies to IL-12p40/IL-12p70 (C8.6), IL-10 (B-T10), CD203c (FR3-16A11) were from Miltenyi Biotec. Blocking antibody to HLA-DQ (SPVL3; 20 μg/mL) was from NeoMarkers. […]
(§1) Dendritic cell preparation and activation. […] Immature DCs were harvested on day 5 and matured using poly(I:C) at 5 μg/mL/10^6 DCs (Amersham) Secretion of IL-12p70, TNFα, IL-1β, IL-6, IL-8 and IL-10 was assessed on both immature and mature DCs using the Human Inflammatory Cytokine Cytometric Bead Array (BD Pharmingen).
We next evaluated whether DCs could be involved in the polarization of MMP-2-specific CD4^+ T cells.

[2] = test system: IL-12p70 production by DCs; test: IL-12p70 production by poly(I:C)-matured DCs (CBA); conditions: DCs stimulated with poly(I:C)
Description: (§2) Immature DCs were incubated with MMP-2 (0.5 μg/mL or 5 μg/mL) and poly(I:C)-matured 1 h later. IL-12 levels were measured 16 h later. (A) Results are represented as a percentage of IL-12p70 levels, measured by CBA, produced when DCs were incubated with poly(I:C) only (n=11). (B) For intracellular staining of IL-12p35 and IL-12p40 chains, Brefeldin A was added 4 h after poly(I:C) activation and cells were stained after an additional 12 h incubation. Numbers in the upper right quadrants are the percentages of each population for a representative donor (n=3). (C,D) Immature DCs were incubated with MMP-2 for 1 h (5 μg/mL) before poly(I:C) maturation. Intracellular staining of phosphorylated (Y701) STAT1 (P-STAT1) was performed 3 h later. A representative donor (C) and results for all 3 donors (D) are shown. […] (E) Immature DCs were incubated with MMP-2 and poly(I:C)-matured 1 h later. IFNβ levels were measured by ELISA 16 h later. Results are represented as a percentage of IFNβ levels produced when DCs were incubated with poly(I:C) only (n=9). (F,G) 10^6DCs/lane were treated with 0.1 μg MMP-2 or controls. Poly(I:C) was added 1 h later. IFNAR1 protein expression was detected the next day by Western blot analysis using a rabbit monoclonal antibody. A representative donor (F) and results for all 7 donors (G) are shown. (H) The rhIFNAR1 (5 μg; ≈110 kD) was incubated overnight with 0.3 μg MMP-2 before performing Western blot analysis for IFNAR1. The second band (around 90 kD) and the third band (25 kD) very likely correspond to either a degraded form of the protein still recognized by the antibody or a contaminant present in the commercial protein preparation and non-specifically recognized by the antibody. MMP-2 enzymatic activity was controlled (FIG. 13C-D). […]
as §1

[3] = test system: phosphorylated (Y701) STAT1; test: Intracellular staining of phosphorylated (Y701) STAT1 in DCs; conditions: DCs preincubated 1 h (5 μg/mL) prior to poly(I:C), 3 h
Description: as §2, with “(F,G) 10^6DCs/lane were treated with 0.1 μg MMP-2 or controls. Poly(I:C) was added 1 h later.” left out, “antibody.” for “antibody. A representative donor (F) and results for all 7 donors (G) are shown. (H) The rhIFNAR1 (5 μg; ≈110 kD) was incubated overnight with 0.3 μg MMP-2 before performing Western blot analysis for IFNAR1. The second band (around 90 kD) and the third band (25 kD) very likely correspond to either a degraded form of the protein still recognized by the antibody or a contaminant present in the commercial protein preparation and non-specifically recognized by the antibody. MMP-2 enzymatic activity was controlled (FIG. 13C-D).”
Intracellular staining T-bet and GATA-3 expression was measured on resting T cells. […] Cytokine production by T cells was also assessed by intracellular staining T cells were stimulated with 2 μM overlapping peptides. […]

B1: inactivated MMP-2: MMP-2 enzyme inactivated either by heating or by addition of the MMP-2 inhibitor III; mode not stated at the place (protein, listed as Homo sapiens)
chain: MEALMARGALTGPLRALCLLGCLLSHAAAAPSPIIKFPGDVAPKTDKELAVQYLNTFYGCPKESCNLFVLKDTLKKMQKFFGLPQTGDLDQNTIETMRKPRCGNPDVANYNFFPRKPKWDKNQITYRIIGYTPDLDPETVDDAFARAFQVWSDVTPLRFSRIHDGEADIMINFGRWEHGDGYPFDGKDGLLAHAFAPGTGVGGDSHFDDDELWTLGEGQVVRVKYGNADGEYCKFPFLFNGKEYNSCTDTGRSDGFLWCSTTYNFEKDGKYGFCPHEALFTMGGNAEGQPCKFPFRFQGTSYDSCTTEGRTDGYRWCGTTEDYDRDKKYGFCPETAMSTVGGNSEGAPCVFPFTFLGNKYESCTSAGRSDGKMWCATTANYDDDRKWGFCPDQGYSLFLVAAHEFGHAMGLEHSQDPGALMAPIYTYTKNFRLSQDDIKGIQELYGASPDIDLGTGPTPTLGPVTPEICKQDIVFDGIAQIRGEIFFFKDRFIWRTVTPRDKPMGPLLVATFWPELPEKIDAVYEAPQEEKAVFFAGNEYWIYSASTLERGYPKPLTSLGLPPDVQRVDAAFNWSKNKKTYIFAGDKFWRYNEVKKKMDPGFPKLIADAWNAIPDNLDAVVDLQGGGHSYFFKGAYYLKLENQSLKSVKFGSIKSDWLGC
modifications: heat or inhibitor inactivated
- OX40L expression on DCs (OX40L expression on DCs): significantly increased
- expression levels of maturation markers CD40, CD80, CD83, CD86, HLA-DR and CCR7 [1]: not significantly affected
- reduction in IL-12 [2]: not observed
- STAT1 phosphorylation [3]: not
